Publication PMC9308218, “FBXL17/spastin axis as a novel therapeutic target of hereditary spastic paraplegia” (Cell & Bioscience, 2022)

Biological target: T1, USP20 (Ubiquitin Specific Peptidase 20) on the HuProt protein microarray (human, UniProt Q9Y2K6 1-914)
T1 construct: ubiquitin specific peptidase 20, human, spot on the HuProt array of full-length recombinant human proteins; source: bought: HuProt protein microarray (CDI Labs), recombinant
Test: peptide or protein array; HuProt human protein microarray (over 20,000 full-length recombinant human proteins); 3 μg biotinylated His-SPAST on the array for 8 h at 4 °C; detected with streptavidin-Alexa-Fluor 635
Conditions: both partners purified

T1 sequence (Q9Y2K6 whole entry): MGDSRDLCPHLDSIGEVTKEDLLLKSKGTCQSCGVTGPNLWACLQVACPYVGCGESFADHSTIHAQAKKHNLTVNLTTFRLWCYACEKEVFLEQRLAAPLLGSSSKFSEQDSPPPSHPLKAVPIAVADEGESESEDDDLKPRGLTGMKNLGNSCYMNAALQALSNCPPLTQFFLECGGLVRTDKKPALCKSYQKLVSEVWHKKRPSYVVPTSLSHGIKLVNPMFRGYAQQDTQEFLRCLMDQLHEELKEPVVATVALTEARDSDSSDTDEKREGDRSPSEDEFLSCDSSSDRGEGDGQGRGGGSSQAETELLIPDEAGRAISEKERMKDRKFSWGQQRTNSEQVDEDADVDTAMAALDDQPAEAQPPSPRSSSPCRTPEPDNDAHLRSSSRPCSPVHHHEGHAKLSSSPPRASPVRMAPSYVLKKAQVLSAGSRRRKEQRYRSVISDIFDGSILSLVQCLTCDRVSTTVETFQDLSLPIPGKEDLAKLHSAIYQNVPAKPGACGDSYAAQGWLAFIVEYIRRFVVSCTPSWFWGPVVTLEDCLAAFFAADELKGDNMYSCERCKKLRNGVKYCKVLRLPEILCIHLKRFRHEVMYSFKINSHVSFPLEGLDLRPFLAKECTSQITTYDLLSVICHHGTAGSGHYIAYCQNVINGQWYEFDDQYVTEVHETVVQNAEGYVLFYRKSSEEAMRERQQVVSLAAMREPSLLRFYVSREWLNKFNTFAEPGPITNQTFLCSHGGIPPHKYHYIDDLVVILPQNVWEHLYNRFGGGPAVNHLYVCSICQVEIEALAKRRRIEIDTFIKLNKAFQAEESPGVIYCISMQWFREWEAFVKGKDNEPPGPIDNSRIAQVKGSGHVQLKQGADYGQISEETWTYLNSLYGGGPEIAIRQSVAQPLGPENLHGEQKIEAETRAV

B1: biotinylated His-SPAST-M1 (natural protein, human, UniProt Q9UBP0 1-616, looked up)
chain: MNSPGGRGKKKGSGGASNPVPPRPPPPCLAPAPPAAGPAPPPESPHKRNLYYFSYPLFVGFALLRLVAFHLGLLFVWLCQRFSRALMAAKRSSGAAPAPASASAPAPVPGGEAERVRVFHKQAFEYISIALRIDEDEKAGQKEQAVEWYKKGIEELEKGIAVIVTGQGEQCERARRLQAKMMTNLVMAKDRLQLLEKMQPVLPFSKSQTDVYNDSTNLACRNGHLQSESGAVPKRKDPLTHTSNSLPRSKTVMKTGSAGLSGHHRAPSYSGLSMVSGVKQGSGPAPTTHKGTPKTNRTNKPSTPTTATRKKKDLKNFRNVDSNLANLIMNEIVDNGTAVKFDDIAGQDLAKQALQEIVILPSLRPELFTGLRAPARGLLLFGPPGNGKTMLAKAVAAESNATFFNISAASLTSKYVGEGEKLVRALFAVARELQPSIIFIDEVDSLLCERREGEHDASRRLKTEFLIEFDGVQSAGDDRVLVMGATNRPQELDEAVLRRFIKRVYVSLPNEETRLLLLKNLLCKQGSPLTQKELAQLARMTDGYSGSDLTALAKDAALGPIRELKPEQVKNMSASEMRNIRLSDFTESLKKIKRSVSPQTLEAYIRWNKDFGDTTV
modifications: biotin (biotinylated, site not stated)
notes: The methods call it His-SPAST; the results call it His-SPAST-M1; also called His-tagged SPAST protein; source: E. coli BL21 (pET28a-His-SPAST), purified (Ni-NTA)
- binding result: binds
